Laboratory results reported in US20050153395A1, “Unique integrin binding site in connective tissue growth factor (CTGF)” (CHILDREN'S HOSPITAL INC., priority 2003, published 2005).

What was measured:
collagen I mRNA = assay: Collagen I mRNA expression in PSCs; format: cell-based, rat
PSCs [1] = assay: PSC DNA synthesis, [3H]thymidine incorporation; format: cell-based, rat; conditions: 24 hours; CTGF1-4 effect in 0.1% serum, not in serum-free medium
Method: To measure the effect of CTGF on cell proliferation, DNA synthesis was measured by ^3H incorporation in PSCs. The cells were incubated for 24 hours with 0.2 μCi [^3H] thymidine in each well (24-well plate). The incorporation of [^3H] thymidine into PSC DNA was determined using a scintillation counter after the cells had been washed with PBS, fixed with 10% methanol, treated with cold 5% trichloroacetic acid, and lysed in 0.3 N NaOH.

integrin α5β1 = integrin α5β1 (Homo sapiens, UniProt P05556+P08648); assay: Solid phase ELISA of integrin α5β1 binding; conditions: for binding to integrin α5β1: coated at 2 μg/ml, 1 μg/ml integrin
integrin α5β1, sequence (P08648 42-894 limits assumed): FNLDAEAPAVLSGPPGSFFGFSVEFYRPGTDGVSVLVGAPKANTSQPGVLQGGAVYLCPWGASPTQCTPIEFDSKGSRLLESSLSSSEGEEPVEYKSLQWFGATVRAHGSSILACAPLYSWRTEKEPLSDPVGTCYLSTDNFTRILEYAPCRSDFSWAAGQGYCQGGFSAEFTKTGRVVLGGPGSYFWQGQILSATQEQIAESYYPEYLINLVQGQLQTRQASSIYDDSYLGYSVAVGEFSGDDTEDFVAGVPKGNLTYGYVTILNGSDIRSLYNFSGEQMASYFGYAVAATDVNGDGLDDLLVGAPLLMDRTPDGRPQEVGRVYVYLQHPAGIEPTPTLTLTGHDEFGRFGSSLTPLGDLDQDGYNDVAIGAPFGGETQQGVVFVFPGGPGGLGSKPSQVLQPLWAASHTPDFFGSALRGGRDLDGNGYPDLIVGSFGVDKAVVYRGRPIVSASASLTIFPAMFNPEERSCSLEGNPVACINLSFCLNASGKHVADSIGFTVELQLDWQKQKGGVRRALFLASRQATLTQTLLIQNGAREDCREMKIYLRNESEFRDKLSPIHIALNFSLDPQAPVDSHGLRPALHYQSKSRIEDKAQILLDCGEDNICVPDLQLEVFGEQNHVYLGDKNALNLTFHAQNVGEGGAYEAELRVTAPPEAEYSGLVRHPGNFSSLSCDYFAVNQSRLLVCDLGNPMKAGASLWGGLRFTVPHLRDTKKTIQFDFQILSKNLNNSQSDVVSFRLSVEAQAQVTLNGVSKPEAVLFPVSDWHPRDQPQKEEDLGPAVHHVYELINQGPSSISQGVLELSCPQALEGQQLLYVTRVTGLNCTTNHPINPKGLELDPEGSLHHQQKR
integrin α5β1, sequence (P08648 895-1049 partner limits assumed): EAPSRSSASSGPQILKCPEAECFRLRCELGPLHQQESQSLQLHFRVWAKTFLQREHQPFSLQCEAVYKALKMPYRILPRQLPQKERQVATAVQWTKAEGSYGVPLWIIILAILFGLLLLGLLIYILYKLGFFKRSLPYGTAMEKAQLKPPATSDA
integrin α5β1, sequence (P05556 21-798): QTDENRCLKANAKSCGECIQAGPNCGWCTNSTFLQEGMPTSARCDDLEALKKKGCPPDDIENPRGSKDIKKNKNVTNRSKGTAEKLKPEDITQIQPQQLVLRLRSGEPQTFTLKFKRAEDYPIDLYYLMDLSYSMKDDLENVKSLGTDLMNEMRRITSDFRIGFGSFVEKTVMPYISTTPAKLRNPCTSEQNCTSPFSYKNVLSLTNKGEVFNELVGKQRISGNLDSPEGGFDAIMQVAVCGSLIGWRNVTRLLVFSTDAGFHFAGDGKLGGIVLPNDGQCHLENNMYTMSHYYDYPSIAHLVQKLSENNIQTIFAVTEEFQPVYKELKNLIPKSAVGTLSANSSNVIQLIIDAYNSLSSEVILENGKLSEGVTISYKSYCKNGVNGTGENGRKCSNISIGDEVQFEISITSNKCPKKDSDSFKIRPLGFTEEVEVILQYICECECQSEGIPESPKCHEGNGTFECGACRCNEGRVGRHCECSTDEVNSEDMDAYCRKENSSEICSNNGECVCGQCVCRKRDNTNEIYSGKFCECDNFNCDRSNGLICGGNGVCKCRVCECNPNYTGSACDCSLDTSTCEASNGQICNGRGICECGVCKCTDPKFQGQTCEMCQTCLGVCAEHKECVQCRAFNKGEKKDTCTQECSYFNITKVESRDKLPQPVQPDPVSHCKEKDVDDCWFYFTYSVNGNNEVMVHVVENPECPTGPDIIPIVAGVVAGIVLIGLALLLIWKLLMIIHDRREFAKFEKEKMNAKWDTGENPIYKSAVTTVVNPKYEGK
Method: In a second approach, a solid phase binding assay was used in which CTGF1-4 or FN were individually coated onto microtiter wells that were subsequently incubated with purified integrin α5β1. The presence of immobilized integrin α5β1 was detected by ELISA using an anti-integrin α5β1 antibody similar to the methods described in Example 3 above. In addition, CTGF1-4 bound to integrin α5β1 in a dose-dependent manner, with maximal binding at 2 μg/ml CTGF. This level of CTGF1-4 (2 μg/ml) binding was the same as that elicited by 2 μg/ml FN, a well known ligand of integrin α5β1. In a similar experiment, 2 μg/ml of CTGF1-4;CTGF3-4 or CTGF4 were individually precoated onto microtiter wells. Using the solid-phase assay, integrin α5β1 bound to CTGF1-4, CTGF3-4 or CTGF4 See FIG. 5 (Panel B).
To directly analyze whether α5β1 integrin binds to CTGF4, microtiter wells coated with CTGF4 (2 μg/ml) or FN (4 μg/ml) were used in an ELISA assay to detect integrin binding, as described in Example 3. For these assays, 1 μg/ml integrin α5β1, alone or in the presence of 35 μM of P2peptide (CTGF[257-272]) and 35 μM of P5 peptide (CTGF [285-291]), were added to the precoated plates. […] The binding between CTGF4 and integrin α5 β1 was blocked by peptide P5 (CTGF [285-291]) or peptide P2 (CTGF[257-272]). […]

[2] = tested on: pancreatic stellate cells (PSC); assay: PSC adhesion assay on coated wells; format: cell-based, rat; conditions: coated at 2 μg/ml
From the text: Rat PSCs were isolated by a modification of the method described by Phillips et al., Gut; 52:677-82, 2003. Briefly, pancreatic tissue was digested in situ with 0.03% collagenase P (Roche, Indianapolis, Ind.) in HBSS by perfusion through the thoracic aorta. This protocol was approved by the Institutional Animal Care and Use Committee of Children's Research Institute, Columbus, Ohio. The tissue was pooled, minced with scissors, and then digested with 0.05% collagenase P, 0.02% protease XIV (Sigma, St. Louis), and DNase I (Roche, Indianapolis, Ind.) in HBSS. The resulting cell suspension was centrifuged in a 12% Optiprep gradient at 1400 g for 14 minutes. Stellate cells separated into a hazy band just above the interface of a the gradient and the aqueous buffer. This band was harvested, and the cells washed and resuspended in DMEM supplemented with 25 mM Hepes buffer, 10% FBS, and 100 U/ml penicillin in, 100 μg/ml streptomycin. The, cells were maintained at 37° C. in a humidified atmosphere of 5% CO2/95% air.
The ability of activated PSC to adhere to non-tissue culture plastic microtiter wells coated with recombinant CTGF1-4, CTGF3-4 or CTGF4 was investigated. The solid phase binding assay was carried out as described in Example 2. […] To assess the possibility that CTGF-mediated PSC adhesion involved cell surface integrins, the effect of divalent cations on cell adhesion was examined, as described in Example 2. […]
Because CTGF is a heparin-binding protein, this property was further investigated.
To identify the peptides that bind to PSCs, cell adhesion assays were carried out as described in Example 3.
To further investigate the peptide binding, P2 or P5 (10 μM) or vehicle buffer alone (no add) were added to PSC cell suspensions for 30 minutes at room temperature.

PSCs [3] = assay: PSC chemotaxis (migration) assay in culture insert; format: cell-based, rat; conditions: substance in lower chamber
Method: To examine whether CTGF plays a role in PSC migration, a chemotaxis assay was carried out in which the migratory behavior of PSCs in the upper chamber of a culture insert was assessed following addition of CTGF to the lower chamber. […] PSC migration was also promoted by FN, PDGF or TGF-β1.

[4] = tested on: hepatic stellate cells (HSC); assay: HSC adhesion assay on coated wells (CyQUANT fluorescence); format: cell-based, rat
Method: CTGF4 is known to be expressed in hepatic stellate cells (HSC) and to induce proliferation and extracellular matrix (ECM) production in these cells. (Williams et al., J Hepatol 32, 754-761, 2000; Paradis et al., Lab Invest 82, 767-774, 2002). The following experiments were carried out to determine if HSCs adhere to CTGF. HSCs were isolated from normal Sprague-Dowley rate by sequential perfusion with pronase/collagenase and purified by density gradient separation as described in Vyas et al. (Gastroenterology 109: 889-898, 1995).
The cells were subsequently detached using 1 mM EDTA PBS (137 mM NaCl, 2.7 mM KCl, 4.3 mM Na2HPO4, 1.4 mM KH2PO4, pH 7.3), washed twice in DMEM and resuspended in serum free medium containing 0.5% BSA. The cells-were plated (1.25×10^4 cells/well) in a 96 well plate coated with one of the following: 2 μg/ml CTGF isoform (CTGF1-4, CTGF3-4, CTGF4), 1 μg/ml laminin, or 4 μg/ml vitronectin and incubated for 20 minutes at 37° C. Subsequently the cells were washed with PBS and the adherent cells were fixed with 10% formalin and stained with CyQUANT GR dye/cell lysis buffer (Molecular Probes , Eugene, Oreg.) according to the manufacturer's instructions. The number of cells that adhered to CTGF isoforms or ECM protein was quantified by measuring the sample fluorescence intensity at Ex/Em: 480/520 nm using a micro-plate reader (CytoFluor™ 2350).
To determine if the CTGF-mediated HSC adhesion was carried out through integrin receptors, the experiment described above were carried out in the presence and absence of 10 mM EDTA. […] It is widely believed that Mn^2+ induces conformational shifts that mimic the physiological activation of β1 and β3 integrins (Roberts et al., J Biol Chem 278: 1975-1985, 2003, van der Pauw et al., J Periodontal Res 37: 317-323, 2002) as Mn^2+-induced activation leads to enhanced ligand-binding affinity and cell adhesion (Mould et al., J Biol Chem 277: 19800-19805, 2002, Loftus & Liddington J Clin Invest 100: S77-81, 1997, Lin et al., J Biol Chem 272: 14236-14243, […]). […]

B1: CTGF1-4: full length CTGF protein, 38 kDa (protein)
chain: QNCSGPCRCPDEPAPRCPAGVSLVLDGCGCCRVCAKQLGELCTERDPCDPHKGLFCDFGSPANRKIGVCTAKDGAPCIFGGTVYRSGESFQSSCKYQCTCLDGAVGCMPLCSMDVRLPSPDCPFPRRVKLPGKCCEEWVCDEPKDQTVVGPALAAYRLEDTFGPDPTMIRANCLVQTTEWSACSKTCGMGISTRVTNDNASCRLEKQSRLCMVRPCEADLEENIKKGKKCIRTPKISKPIKFELSGCTSMKTYRAKFCGVCTDGRCCTPHRTTTLPVEFKCPDGEVMKKNMMFIKTCACHYNCPGDNDIFESLYYRKMYGDMA
collagen I mRNA expression in PSCs (collagen I mRNA): significantly increased
PSC proliferation (DNA synthesis) (PSCs [1]): significantly enhanced
binding to integrin α5β1 (integrin α5β1): bound
binding to integrin α5β1, maximal binding at (integrin α5β1; coated protein): 2 µg/mL
PSC adhesion supported by the coated substance [2]: significantly promoted
PSC migration (PSCs [3]): induced PSC migration

B2: Heparinase I: enzyme that acts on highly sulfated heparan sulfate proteoglycans (protein, UniProt Q05819 22-384, looked up)
Heparin lyase I: QQKKSGNIPYRVNVQADSAKQKAIIDNKWVAVGINKPYALQYDDKLRFNGKPSYRFELKAEDNSLEGYAAGETKGRTELSYSYATTNDFKKFPPSVYQNAQKLKTVYHYGKGICEQGSSRSYTFSVYIPSSFPDNATTIFAQWHGAPSRTLVATPEGEIKTLSIEEFLALYDRMIFKKNIAHDKVEKKDKDGKITYVAGKPNGWKVEQGGYPTLAFGFSKGYFYIKANSDRQWLTDKADRNNANPENSEVMKPYSSEYKTSTIAYKMPFAQFPKDCWITFDVAIDWTKYGKEANTILKPGKLDVMMTYTKNKKPQKAHIVNQQEILIGRNDDDGYYFKFGIYRVGNSTVPVTYNLSGYSETAR
inhibition of HSC adherence to CTGF[257-272] ([4]; peptide-coated wells, heparin 2 μg/ml): abrogated
inhibition of CTGF4-mediated HSC adhesion ([4]; wells coated 2 μg/ml CTGF4, EDTA 10 mM, GRGDsp 1 mM, Echistatin 2 μM, antibody/IgG 25 μg/ml, heparin 2 μg/ml): unable to adhere
inhibition of vitronectin-mediated HSC adhesion ([4]; wells coated 4 μg/ml vitronectin): adhered to vitronectin

B3: CTGF3-4: C-terminal CTGF fragment comprising modules 3 and 4 (protein)
chain: AYRLEDTFGPDPTMIRANCLVQTTEWSACSKTCGMGISTRVTNDNASCRLEKQSRLCMVRPCEADLEENIKKGKKCIRTPKISKPIKFELSGCTSMKTYRAKFCGVCTDGRCCTPHRTTTLPVEFKCPDGEVMKKNMMFIKTCACHYNCPGDNDIFESLYYRKMYGDMA
binding to integrin α5β1 (integrin α5β1): bound
PSC adhesion supported by the coated substance [2]: significantly promoted
PSC migration (PSCs [3]): induced PSC migration
